T1: cynomolgus monkey FcγRIIa1 extracellular domain with C-terminal His-tag (cynomolgus monkey)
T1 construct: Expressed in FreeStyle 293 cells and purified; also called cyno FcγRIIa1; cynoFcgRIIa1; not shown: C-terminal His-tag
T1 chain: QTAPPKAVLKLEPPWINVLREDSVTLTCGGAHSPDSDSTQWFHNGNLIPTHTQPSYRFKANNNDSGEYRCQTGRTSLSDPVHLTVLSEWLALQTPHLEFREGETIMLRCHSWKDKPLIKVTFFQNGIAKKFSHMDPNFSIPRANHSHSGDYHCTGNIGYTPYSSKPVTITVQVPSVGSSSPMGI

T2: cynomolgus monkey FcγRIIa2 extracellular domain with C-terminal His-tag (cynomolgus monkey)
T2 construct: Expressed in FreeStyle 293 cells and purified; also called cyno FcγRIIa2; cynoFcgRIIa2; not shown: C-terminal His-tag
T2 chain: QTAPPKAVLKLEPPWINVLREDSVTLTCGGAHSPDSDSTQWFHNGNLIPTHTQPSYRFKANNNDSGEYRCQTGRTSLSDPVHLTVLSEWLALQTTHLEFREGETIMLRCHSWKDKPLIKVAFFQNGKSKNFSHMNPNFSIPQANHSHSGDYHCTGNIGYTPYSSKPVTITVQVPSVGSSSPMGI

T3: cynomolgus monkey FcγRIIa3 extracellular domain with C-terminal His-tag (cynomolgus monkey)
T3 construct: Expressed in FreeStyle 293 cells and purified; also called cyno FcγRIIa3; cynoFcgRIIa3; not shown: C-terminal His-tag
T3 chain: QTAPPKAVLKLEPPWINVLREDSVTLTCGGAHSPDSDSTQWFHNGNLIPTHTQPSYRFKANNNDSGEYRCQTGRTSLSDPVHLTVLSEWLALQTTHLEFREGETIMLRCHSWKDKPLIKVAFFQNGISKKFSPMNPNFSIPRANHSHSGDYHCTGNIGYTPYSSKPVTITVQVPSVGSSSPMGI

T4: cynomolgus monkey FcγRIIIaS extracellular domain with C-terminal His-tag (cynomolgus monkey, UniProt Q8SPW2 21-206 at identity 1.00))
T4 construct: Expressed in FreeStyle 293 cells and purified; also called cyno FcγRIIIaS; cynoFcγRIIIaS; not shown: C-terminal His-tag
T4 chain: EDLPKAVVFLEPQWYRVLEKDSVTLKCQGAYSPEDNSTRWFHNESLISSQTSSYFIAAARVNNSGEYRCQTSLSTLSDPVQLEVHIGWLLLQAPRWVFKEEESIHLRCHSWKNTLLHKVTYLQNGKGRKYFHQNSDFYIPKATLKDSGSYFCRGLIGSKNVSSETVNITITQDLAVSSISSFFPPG

T5: human FcγRIIaH extracellular domain with C-terminal His-tag (human, UniProt P12318 34-217)
T5 construct: Expressed in FreeStyle 293 cells and purified; also called human FcγRIIa (type H); FcgRIIaH; not shown: C-terminal His-tag
T5 sequence: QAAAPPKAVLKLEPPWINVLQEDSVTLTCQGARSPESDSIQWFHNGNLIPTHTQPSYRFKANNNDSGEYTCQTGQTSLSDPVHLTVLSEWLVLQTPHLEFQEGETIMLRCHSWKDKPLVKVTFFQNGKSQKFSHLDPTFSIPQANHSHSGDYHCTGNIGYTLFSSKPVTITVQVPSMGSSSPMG

T6: human FcγRIIaR extracellular domain with C-terminal His-tag (human, UniProt P12318 34-217)
T6 construct: Expressed in FreeStyle 293 cells and purified; also called human FcγRIIa (type R); FcgRIIaR; not shown: C-terminal His-tag
T6 chain: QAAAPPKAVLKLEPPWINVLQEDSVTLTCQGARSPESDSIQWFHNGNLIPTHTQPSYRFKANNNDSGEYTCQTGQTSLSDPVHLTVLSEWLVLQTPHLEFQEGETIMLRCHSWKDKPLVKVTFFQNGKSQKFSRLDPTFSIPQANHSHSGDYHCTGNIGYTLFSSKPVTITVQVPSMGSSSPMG

T7: human FcγRIIb extracellular domain with C-terminal His-tag (human, UniProt P31994 43-217)
T7 construct: Expressed in FreeStyle 293 cells and purified; also called humanFcgRIIb; not shown: C-terminal His-tag
T7 sequence: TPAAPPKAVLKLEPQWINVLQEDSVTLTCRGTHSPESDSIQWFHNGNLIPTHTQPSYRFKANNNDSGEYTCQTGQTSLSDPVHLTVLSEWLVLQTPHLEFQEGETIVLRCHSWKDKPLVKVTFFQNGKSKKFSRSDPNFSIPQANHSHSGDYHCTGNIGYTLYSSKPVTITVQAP

T8: human FcγRIIaH extracellular domain, C-terminal His-tag (human, UniProt P12318 34-217)
T8 construct: also called human FcγRIIa (type H); FcgRIIaH; not shown: His-tag added to the C-terminus
T8 sequence: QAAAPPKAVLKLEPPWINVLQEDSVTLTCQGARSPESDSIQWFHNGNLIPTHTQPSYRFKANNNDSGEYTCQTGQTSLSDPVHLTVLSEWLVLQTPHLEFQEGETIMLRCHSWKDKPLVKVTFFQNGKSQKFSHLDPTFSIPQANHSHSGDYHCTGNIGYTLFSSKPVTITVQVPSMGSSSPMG

T9: human FcγRIIaR extracellular domain, C-terminal His-tag (human, UniProt P12318 34-217)
T9 construct: also called human FcγRIIa (type R); FcgRIIaR; not shown: His-tag added to the C-terminus
T9 chain: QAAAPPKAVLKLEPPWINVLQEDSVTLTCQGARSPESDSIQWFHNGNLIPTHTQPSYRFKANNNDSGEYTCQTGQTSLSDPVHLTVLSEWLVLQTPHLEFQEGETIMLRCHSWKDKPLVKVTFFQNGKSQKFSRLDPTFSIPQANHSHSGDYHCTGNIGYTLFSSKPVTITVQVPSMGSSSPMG

T10: human FcγRIIb extracellular domain, C-terminal His-tag (human, UniProt P31994 43-217)
T10 construct: also called FcgRIIb; not shown: His-tag added to the C-terminus
T10 sequence: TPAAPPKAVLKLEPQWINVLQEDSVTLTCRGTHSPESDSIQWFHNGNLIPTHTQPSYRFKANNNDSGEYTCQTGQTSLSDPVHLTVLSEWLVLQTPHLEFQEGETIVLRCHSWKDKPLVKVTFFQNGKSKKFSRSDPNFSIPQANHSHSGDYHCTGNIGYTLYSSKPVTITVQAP


Experiments:
[1] = target: T1, cynomolgus monkey FcγRIIa1 …; experiment: SPR (Biacore); KD of SG1 divided by KD of the variant for this FcgR;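 further: relative to parent M103205H795-SG1 carrying the SG1 human heavy chain constant region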
Procedure: (§1) Regarding such interactions, KD values were calculated using the following 1:1 binding model described in BIACORE® T100 Software Handbook BR1006-48 Edition AE.
(§2) The behavior of interacting molecules according to the 1:1 binding model on BIACORE® can be described by Equation 1: Req=C·R max/(KD+C)+RI, wherein, Req is a plot of steady-state binding levels to analyte concentration. C is concentration, RI is bulk refractive index contribution in the sample, and Rmax is analyte binding capacity of the surface. When this equation is rearranged, KD can be expressed as Equation 2: KD=C·Rmax/(Req−RI)−C. KD can be calculated by substituting the values of Rmax, RI, and C into Equation 1 or Equation 2. From the current measurement conditions, RI=0, C=2 μmol/L can be used.
(§3) The variants were expressed using M103202L889-SK1 as the light chain and their affinity was analyzed.

[2] = target: T2, cynomolgus monkey FcγRIIa2 …; experiment: as above
Procedure: as §1, §2, §3

[3] = target: T3, cynomolgus monkey FcγRIIa3 …; experiment: as above
Procedure: as §1, §2, §3

[4] = target: T4, cynomolgus monkey FcγRIIIaS …; experiment: as above
Procedure: as §1, §2, §3

[5] = target: T5, human FcγRIIaH extracellular domain …; experiment: as above
Procedure: as §1, §2, §3

[6] = target: T6, human FcγRIIaR extracellular domain …; experiment: as above
Procedure: as §1, §2, §3

[7] = target: T7, human FcγRIIb extracellular domain with …; experiment: as above
Procedure: as §1, §2, §3

[8] = target: T11, human FcγRIIIaV extracellular domain with C-terminal His-tag (human, UniProt P08637 17-208); experiment: as above
T11 construct: Expressed in FreeStyle 293 cells and purified; also called FcgRIIIaV; not shown: C-terminal His-tag
Procedure: as §1, §2, §3

[9] = target: T8, human FcγRIIaH extracellular domain, …; experiment: SPR; KD of SG1 divided by KD of variant;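 further: relative to parent M103205H795-SG1 carrying the SG1 human heavy chain constant region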
[10] = target: T9, human FcγRIIaR extracellular domain, …; experiment: SPR; KD of SG1 divided by KD of variant;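 further: relative to parent M103205H795-SG1 carrying the SG1 human heavy chain constant region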
[11] = target: T10, human FcγRIIb extracellular domain, …; experiment: SPR; KD of SG1 divided by KD of variant;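 further: relative to parent M103205H795-SG1 carrying the SG1 human heavy chain constant region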
[12] = target: T12, human FcγRIIIaV extracellular domain, C-terminal His-tag (human, UniProt P08637 17-208); experiment: SPR; KD of SG1 divided by KD of variant
T12 construct: also called FcgRIIIaV; not shown: His-tag added to the C-terminus

[13] = target: T8, human FcγRIIaH extracellular domain, …; experiment: SPR (BIACORE), antibody captured, soluble FcgR as analyte, 25C
[14] = target: T9, human FcγRIIaR extracellular domain, …; experiment: as above
[15] = target: T10, human FcγRIIb extracellular domain, …; experiment: as above
[16] = target: T12, human FcγRIIIaV extracellular domain, …; experiment: as above

T12 sequence (P08637 17-208 F176V): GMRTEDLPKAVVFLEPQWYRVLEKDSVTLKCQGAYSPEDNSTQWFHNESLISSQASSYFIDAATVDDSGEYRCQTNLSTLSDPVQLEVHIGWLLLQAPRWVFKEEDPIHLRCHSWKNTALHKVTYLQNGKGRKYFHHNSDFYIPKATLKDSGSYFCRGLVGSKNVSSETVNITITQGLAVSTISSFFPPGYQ
T11 sequence (P08637 17-208 F176V): as above

Row | Binder | KD fold (SG1 = 1) [1] | KD fold (SG1 = 1) [2] | KD fold (SG1 = 1) [3] | KD fold (SG1 = 1) [4] | KD fold (SG1 = 1) [5] | KD fold (SG1 = 1) [6] | KD fold (SG1 = 1) [7] | KD fold (SG1 = 1) [8] | KD fold (SG1 = 1) [9] | KD fold (SG1 = 1) [10] | KD fold (SG1 = 1) [11] | KD fold (SG1 = 1) [12] | Kd [13] | Kd [14] | Kd [15] | Kd [16]
1 | M103205H795-MY209 / M103202L889-SK1 (antibody, human IgG1, kappa, Fc variant of M103205H795-SG1, expressed with M103202L889-SK1 as light chain) heavy: QVTLKESGPVLVKPTETLTLTCTVSGIDLSHDDISWVRQAPGKGLEWVGIISYAGSTYYASWAKGRLTISKDTSKNQVVLTMTNMDPVDTATYYCARGVPAYSHGGDLWGQGTLVTVSSASTKGPSVFPLAPSSKSTSGGTAALGCLVKDYFPEPVTVSWNSGALTSGVHTFPAVLQSSGLYSLSSVVTVPSSSLGTQTYICNVNHKPSNTKVDKKVEPKSCDKTHTCPPCPAPELLNGPSVFLFPPKPKDTLMISRTPEVTCVVVDVSDEDPEVKFNWYVDGVEVHNAKTKPREELYNSTYRVVSVLTVLHQDWLNGKEYKCKVSNTALPKPIEKTISKAKGQPREPQVYTLPPSREEMTKNQVSLTCLVKGFYPSDIAVEWESNGQPENNYKTTPPVLDSDGSFFLYSKLTVDKSRWQQGNVFSCSVMHEALHNHYTQKSLSLSP light: DIVMTQSPATLSLSPGERATLSCTSSQSVYHANWLSWFQQKPGQPPKLLIYWASTLAYGVPSRFSGSGSGTDFTLTISSLQPEDAATYYCAGGYGGGRYAFGQGTKVEIKRTVAAPSVFIFPPSDEQLKSGTASVVCLLNNFYPREAKVQWKVDNALQSGNSQESVTEQDSKDSTYSLSSTLTLSKADYEKHKVYACEVTHQGLSSPVTKSFNRGEC | 5.1 fold | 7.4 fold | 5.9 fold | 0.16 fold | 1.2 fold | 1.3 fold | 9.2 fold | 0.06 fold | – | – | – | – | – | – | – | –
2 | MS103240H795-TT34/M103202L1045-SK1 (antibody, human IgG1, kappa, CH = SG1 with L234Y/P238D/T250V/V264I/S267A/T307P/Q311R/A330K/P343R (EU numbering)) heavy: QVQLVESGGGLVQPGGSLRLSCAVSGIDLSHDDISWVRQAPGKGLEWVSIISYAGSTYYASWAKGRLTISKDTSKNQVVLTMTNMDPVDTATYYCARGVPAYSHGGDLWGQGTLVTVSSASTKGPSVFPLAPSSKSTSGGTAALGCLVKDYFPEPVTVSWNSGALTSGVHTFPAVLQSSGLYSLSSVVTVPSSSLGTQTYICNVNHKPSNTKVDKKVEPKSCDKTHTCPPCPAPEYLGGDSVFLFPPKPKDVLMISRTPEVTCVVIDVAHEDPEVKFNWYVDGVEVHNAKTKPREEQYNSTYRVVSVLPVLHRDWLNGKEYKCKVSNKALPKPIEKTISKAKGQRREPQVYTLPPSREEMTKNQVSLTCLVKGFYPSDIAVEWESNGQPENNYKTTPPVLDSDGSFFLYSKLTVDKSRWQQGNVFSCSVMHEALHNHYTQKSLSLSP light: DIVMTQSPATLSLSPGERATLSCTTSQSVYHENWLSWFQQKPGQPPKLLIYWASTLAYGVPSRFSGSGSGTDFTLTISSLQPEDAATYYCAGGYGGGRYAFGQGTKVEIKRTVAAPSVFIFPPSDEQLKSGTASVVCLLNNFYPREAKVQWKVDNALQSGNSQESVTEQDSKDSTYSLSSTLTLSKADYEKHKVYACEVTHQGLSSPVTKSFNRGEC | – | – | – | – | – | – | – | – | 0.034 fold | 0.12 fold | 11.8 fold | 0.008 fold | 22 µM | 8.9 µM | 0.49 µM | 96 µM
3 | MS103240H795-TT35/M103202L1045-SK1 (antibody, human IgG1, kappa, CH = SG1 with L234Y/P238D/T250V/V264I/S267A/T307P/Q311R/A330K/D413K (EU numbering)) heavy: QVQLVESGGGLVQPGGSLRLSCAVSGIDLSHDDISWVRQAPGKGLEWVSIISYAGSTYYASWAKGRLTISKDTSKNQVVLTMTNMDPVDTATYYCARGVPAYSHGGDLWGQGTLVTVSSASTKGPSVFPLAPSSKSTSGGTAALGCLVKDYFPEPVTVSWNSGALTSGVHTFPAVLQSSGLYSLSSVVTVPSSSLGTQTYICNVNHKPSNTKVDKKVEPKSCDKTHTCPPCPAPEYLGGDSVFLFPPKPKDVLMISRTPEVTCVVIDVAHEDPEVKFNWYVDGVEVHNAKTKPREEQYNSTYRVVSVLPVLHRDWLNGKEYKCKVSNKALPKPIEKTISKAKGQPREPQVYTLPPSREEMTKNQVSLTCLVKGFYPSDIAVEWESNGQPENNYKTTPPVLDSDGSFFLYSKLTVKKSRWQQGNVFSCSVMHEALHNHYTQKSLSLSP light: DIVMTQSPATLSLSPGERATLSCTTSQSVYHENWLSWFQQKPGQPPKLLIYWASTLAYGVPSRFSGSGSGTDFTLTISSLQPEDAATYYCAGGYGGGRYAFGQGTKVEIKRTVAAPSVFIFPPSDEQLKSGTASVVCLLNNFYPREAKVQWKVDNALQSGNSQESVTEQDSKDSTYSLSSTLTLSKADYEKHKVYACEVTHQGLSSPVTKSFNRGEC | – | – | – | – | – | – | – | – | 0.03 fold | 0.12 fold | 13.5 fold | 0.004 fold | 25 µM | 9 µM | 0.43 µM | 180 µM
